Measurements from article PMC9352680, “A comprehensive thermodynamic model for RNA binding by the Saccharomyces cerevisiae Pumilio protein PUF4”.

T1: PUF4 RNA-binding domain (Saccharomyces cerevisiae, UniProt P25339 537-888)
T1 sequence: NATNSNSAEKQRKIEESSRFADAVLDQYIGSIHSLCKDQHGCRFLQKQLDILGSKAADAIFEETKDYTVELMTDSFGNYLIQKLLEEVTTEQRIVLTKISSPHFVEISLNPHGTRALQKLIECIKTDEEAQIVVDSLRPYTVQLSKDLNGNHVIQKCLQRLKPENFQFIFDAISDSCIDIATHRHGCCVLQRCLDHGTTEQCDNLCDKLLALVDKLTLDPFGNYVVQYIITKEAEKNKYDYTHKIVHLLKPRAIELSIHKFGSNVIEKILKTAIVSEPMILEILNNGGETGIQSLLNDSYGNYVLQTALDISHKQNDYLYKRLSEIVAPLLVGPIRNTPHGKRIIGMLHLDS


Target: T1, PUF4 RNA-binding domain
Assay: Mg; RNA-MaP; 20 mM Na-HEPES pH 7.4, 30 mM KOAc, 0.75 mM MgCl2, 0.1% Tween-20, 5% glycerol, 0.1 mg/mL BSA, 2 mM DTT; 25 C; 0.0125-409.6 nM protein
Conditions: tags: N-His6-TEV cleaved; C-SNAP kept, Cy3B-labelled; label: tethered on chip by stalled RNA polymerase

Binder	Kd
Ie_S2_P3E.2_K3.1_C3.2_H3.1_[+2CC]_A3.1_F3.1_T3.2 (ssRNA) RNA: UUUGAUUAAUAUGAUAUCGUUCUUUCUCUUGCCUAUAUAUAUUCUUUCUCGAUAUCAUAUUAAUCUUU	102 nM
Ie_S2_P3E.2_K3.1_C3.2_H3.1_[+4CC]_A3.1_F3.1_T3.2 (ssRNA) RNA: UUUGAUUAAUAUGAUAUCGUUCUUUCUCUUGUACCUAUAUAUUCUUUCUCGAUAUCAUAUUAAUCUUU	2.33 nM
Ie_S2_P3E.2_K3.1_C3.2_H3.1_[+2TT]_A3.1_F3.1_T3.2 (ssRNA) RNA: UUUGAUUAAUAUGAUAUCGUUCUUUCUCUUGUUUAUAUAUAUUCUUUCUCGAUAUCAUAUUAAUCUUU	14.6 nM
Ie_S2_P3E.2_K3.1_C3.2_H3.1_A3.1_[+5CT]_F3.1_T3.2 (ssRNA) RNA: UUUGAUUAAUAUGAUAUCGUUCUUUCUCUUGUAUCUAUAUAUUCUUUCUCGAUAUCAUAUUAAUCUUU	3.75 nM
Ie_S2_P3E.2_K3.1_C3.2_H3.1_[+2CT]_A3.1_F3.1_T3.2 (ssRNA) RNA: UUUGAUUAAUAUGAUAUCGUUCUUUCUCUUGCUUAUAUAUAUUCUUUCUCGAUAUCAUAUUAAUCUUU	93 nM
Ie_S2_P3E.2_K3.1_C3.2_H3.1_[+3TC]_A3.1_F3.1_T3.2 (ssRNA) RNA: UUUGAUUAAUAUGAUAUCGUUCUUUCUCUUGUUCAUAUAUAUUCUUUCUCGAUAUCAUAUUAAUCUUU	12.9 nM
Ie_S2_P3E.2_K3.1_C3.2_H3.1_[+3CC]_A3.1_F3.1_T3.2 (ssRNA) RNA: UUUGAUUAAUAUGAUAUCGUUCUUUCUCUUGUCCAUAUAUAUUCUUUCUCGAUAUCAUAUUAAUCUUU	34 nM
Ie_S2_P3E.2_K3.1_C3.2_H3.1_[+3CT]_A3.1_F3.1_T3.2 (ssRNA) RNA: UUUGAUUAAUAUGAUAUCGUUCUUUCUCUUGUCUAUAUAUAUUCUUUCUCGAUAUCAUAUUAAUCUUU	28.3 nM
Ic_S2_P3E.1_K3.1_C3.1_H3.1_A3.1_[A6C]_F3.1_[T7C]_T3.1 (ssRNA) RNA: UUUGAUUAAUAUGAUAUCGUUCUUUCUUGUAUCCAUUCUUUCUCGAUAUCAUAUUAAUCUUU	148 nM
Ic_S2_P3E.1_K3.1_C3.1_H3.1_A3.1_[A6C]_F3.1_[T7A]_T3.1 (ssRNA) RNA: UUUGAUUAAUAUGAUAUCGUUCUUUCUUGUAUCAAUUCUUUCUCGAUAUCAUAUUAAUCUUU	107 nM
Ic_S2_P3E.1_K3.1_C3.1_H3.1_A3.1_[A6T]_F3.1_[T7A]_T3.1 (ssRNA) RNA: UUUGAUUAAUAUGAUAUCGUUCUUUCUUGUAUUAAUUCUUUCUCGAUAUCAUAUUAAUCUUU	56.9 nM
Ic_S2_P3E.1_K3.1_C3.1_H3.1_A3.1_[A6T]_F3.1_[T7C]_T3.1 (ssRNA) RNA: UUUGAUUAAUAUGAUAUCGUUCUUUCUUGUAUUCAUUCUUUCUCGAUAUCAUAUUAAUCUUU	114 nM
Ie_S2_P3E.2_K3.1_C3.2_H3.1_[+2T]_A3.1_F3.1_T3.2 (ssRNA) RNA: UUUGAUUAAUAUGAUAUCGUUCUUUCUCUUGUUAUAUAUAUUCUUUCUCGAUAUCAUAUUAAUCUUU	8.08 nM
Ie_S2_P3E.2_K3.1_C3.2_H3.1_A3.1_[+5T]_F3.1_T3.2 (ssRNA) RNA: UUUGAUUAAUAUGAUAUCGUUCUUUCUCUUGUAUUAUAUAUUCUUUCUCGAUAUCAUAUUAAUCUUU	1.52 nM
Ie_S2_P3E.2_K3.1_C3.2_H3.1_[+4C]_A3.1_F3.1_T3.2 (ssRNA) RNA: UUUGAUUAAUAUGAUAUCGUUCUUUCUCUUGUACUAUAUAUUCUUUCUCGAUAUCAUAUUAAUCUUU	0.5 nM
Ie_S2_P3E.2_K3.1_C3.2_H3.1_[+2CTC]_A3.1_F3.1_T3.2 (ssRNA) RNA: UUUGAUUAAUAUGAUAUCGUUCUUUCUCUUGCUCUAUAUAUAUUCUUUCUCGAUAUCAUAUUAAUCUUU	63.2 nM
Ie_S2_P3E.2_K3.1_C3.2_H3.1_[+3TTC]_A3.1_F3.1_T3.2 (ssRNA) RNA: UUUGAUUAAUAUGAUAUCGUUCUUUCUCUUGUUUCAUAUAUAUUCUUUCUCGAUAUCAUAUUAAUCUUU	8.9 nM
Ie_S2_P3E.2_K3.1_C3.2_H3.1_[+2TCC]_A3.1_F3.1_T3.2 (ssRNA) RNA: UUUGAUUAAUAUGAUAUCGUUCUUUCUCUUGUCCUAUAUAUAUUCUUUCUCGAUAUCAUAUUAAUCUUU	9.73 nM
Ie_S2_P3E.2_K3.1_C3.2_H3.1_[+3CTC]_A3.1_F3.1_T3.2 (ssRNA) RNA: UUUGAUUAAUAUGAUAUCGUUCUUUCUCUUGUCUCAUAUAUAUUCUUUCUCGAUAUCAUAUUAAUCUUU	17.3 nM
Ie_S2_P3E.2_K3.1_C3.2_H3.1_[+2TTT]_A3.1_F3.1_T3.2 (ssRNA) RNA: UUUGAUUAAUAUGAUAUCGUUCUUUCUCUUGUUUUAUAUAUAUUCUUUCUCGAUAUCAUAUUAAUCUUU	10.7 nM
Ie_S2_P3E.2_K3.1_C3.2_H3.1_[+4CTT]_A3.1_F3.1_T3.2 (ssRNA) RNA: UUUGAUUAAUAUGAUAUCGUUCUUUCUCUUGUACUUUAUAUAUUCUUUCUCGAUAUCAUAUUAAUCUUU	1.08 nM
Ie_S2_P3E.2_K3.1_C3.2_H3.1_[+2TTC]_A3.1_F3.1_T3.2 (ssRNA) RNA: UUUGAUUAAUAUGAUAUCGUUCUUUCUCUUGUUCUAUAUAUAUUCUUUCUCGAUAUCAUAUUAAUCUUU	6.23 nM

Binder	Kd
Ie_S2_P3E.2_K3.1_C3.2_H3.1_[+2TCT]_A3.1_F3.1_T3.2 (ssRNA) RNA: UUUGAUUAAUAUGAUAUCGUUCUUUCUCUUGUCUUAUAUAUAUUCUUUCUCGAUAUCAUAUUAAUCUUU	15.5 nM
Ie_S2_P3E.2_K3.1_C3.2_H3.1_[+4CCC]_A3.1_F3.1_T3.2 (ssRNA) RNA: UUUGAUUAAUAUGAUAUCGUUCUUUCUCUUGUACCCUAUAUAUUCUUUCUCGAUAUCAUAUUAAUCUUU	1.82 nM
Ie_S2_P3E.2_K3.1_C3.2_H3.1_[+3CCC]_A3.1_F3.1_T3.2 (ssRNA) RNA: UUUGAUUAAUAUGAUAUCGUUCUUUCUCUUGUCCCAUAUAUAUUCUUUCUCGAUAUCAUAUUAAUCUUU	13.5 nM
Ie_S2_P3E.2_K3.1_C3.2_H3.1_[+4CCT]_A3.1_F3.1_T3.2 (ssRNA) RNA: UUUGAUUAAUAUGAUAUCGUUCUUUCUCUUGUACCUUAUAUAUUCUUUCUCGAUAUCAUAUUAAUCUUU	1.4 nM
Ie_S2_P3E.2_K3.1_C3.2_H3.1_[+2CTT]_A3.1_F3.1_T3.2 (ssRNA) RNA: UUUGAUUAAUAUGAUAUCGUUCUUUCUCUUGCUUUAUAUAUAUUCUUUCUCGAUAUCAUAUUAAUCUUU	65.6 nM
Ie_S2_P3E.2_K3.1_C3.2_H3.1_[+2CTCT]_A3.1_F3.1_T3.2 (ssRNA) RNA: UUUGAUUAAUAUGAUAUCGUUCUUUCUCUUGCUCUUAUAUAUAUUCUUUCUCGAUAUCAUAUUAAUCUUU	62.1 nM
Ie_S2_P3E.2_K3.1_C3.2_H3.1_[+3CCTC]_A3.1_F3.1_T3.2 (ssRNA) RNA: UUUGAUUAAUAUGAUAUCGUUCUUUCUCUUGUCCUCAUAUAUAUUCUUUCUCGAUAUCAUAUUAAUCUUU	62.8 nM
Ie_S2_P3E.2_K3.1_C3.2_H3.1_[+4CTCT]_A3.1_F3.1_T3.2 (ssRNA) RNA: UUUGAUUAAUAUGAUAUCGUUCUUUCUCUUGUACUCUUAUAUAUUCUUUCUCGAUAUCAUAUUAAUCUUU	3.27 nM
Ie_S2_P3E.2_K3.1_C3.2_H3.1_[+3CCCT]_A3.1_F3.1_T3.2 (ssRNA) RNA: UUUGAUUAAUAUGAUAUCGUUCUUUCUCUUGUCCCUAUAUAUAUUCUUUCUCGAUAUCAUAUUAAUCUUU	30.4 nM
Ie_S2_P3E.2_K3.1_C3.2_H3.1_[+2CCCT]_A3.1_F3.1_T3.2 (ssRNA) RNA: UUUGAUUAAUAUGAUAUCGUUCUUUCUCUUGCCCUUAUAUAUAUUCUUUCUCGAUAUCAUAUUAAUCUUU	67.5 nM
Ie_S2_P3E.2_K3.1_C3.2_H3.1_[+2CCTC]_A3.1_F3.1_T3.2 (ssRNA) RNA: UUUGAUUAAUAUGAUAUCGUUCUUUCUCUUGCCUCUAUAUAUAUUCUUUCUCGAUAUCAUAUUAAUCUUU	162 nM
Ie_S2_P3E.2_K3.1_C3.2_H3.1_[+3CTCT]_A3.1_F3.1_T3.2 (ssRNA) RNA: UUUGAUUAAUAUGAUAUCGUUCUUUCUCUUGUCUCUAUAUAUAUUCUUUCUCGAUAUCAUAUUAAUCUUU	21.2 nM
Ie_S2_P3E.2_K3.1_C3.2_H3.1_[+1TTCCT]_A3.1_F3.1_T3.2 (ssRNA) RNA: UUUGAUUAAUAUGAUAUCGUUCUUUCUCUUUUCCUGUAUAUAUAUUCUUUCUCGAUAUCAUAUUAAUCUUU	1.16 nM
Ie_S2_P3E.2_K3.1_C3.2_H3.1_[+2CTCTC]_A3.1_F3.1_T3.2 (ssRNA) RNA: UUUGAUUAAUAUGAUAUCGUUCUUUCUCUUGCUCUCUAUAUAUAUUCUUUCUCGAUAUCAUAUUAAUCUUU	61.8 nM
Ie_S2_P3E.2_K3.1_C3.2_H3.1_[+2TCTCT]_A3.1_F3.1_T3.2 (ssRNA) RNA: UUUGAUUAAUAUGAUAUCGUUCUUUCUCUUGUCUCUUAUAUAUAUUCUUUCUCGAUAUCAUAUUAAUCUUU	21.5 nM
Ie_S2_P3E.2_K3.1_C3.2_H3.1_[+3CTCTC]_A3.1_F3.1_T3.2 (ssRNA) RNA: UUUGAUUAAUAUGAUAUCGUUCUUUCUCUUGUCUCUCAUAUAUAUUCUUUCUCGAUAUCAUAUUAAUCUUU	76.4 nM
Ie_S2_P3E.2_K3.1_C3.2_H3.1_[+1CCCTT]_A3.1_F3.1_T3.2 (ssRNA) RNA: UUUGAUUAAUAUGAUAUCGUUCUUUCUCUUCCCUUGUAUAUAUAUUCUUUCUCGAUAUCAUAUUAAUCUUU	1.15 nM
Ie_S2_P3E.2_K3.1_C3.2_H3.1_[+3TTCCT]_A3.1_F3.1_T3.2 (ssRNA) RNA: UUUGAUUAAUAUGAUAUCGUUCUUUCUCUUGUUUCCUAUAUAUAUUCUUUCUCGAUAUCAUAUUAAUCUUU	19.1 nM
Ie_S2_P3E.2_K3.1_C3.2_H3.1_[+2CCTCT]_A3.1_F3.1_T3.2 (ssRNA) RNA: UUUGAUUAAUAUGAUAUCGUUCUUUCUCUUGCCUCUUAUAUAUAUUCUUUCUCGAUAUCAUAUUAAUCUUU	112 nM
Ie_S2_P3E.2_K3.1_C3.2_H3.1_[+2TTCCT]_A3.1_F3.1_T3.2 (ssRNA) RNA: UUUGAUUAAUAUGAUAUCGUUCUUUCUCUUGUUCCUUAUAUAUAUUCUUUCUCGAUAUCAUAUUAAUCUUU	16.3 nM
Ie_S2_P3E.2_K3.1_C3.2_H3.1_[+3CCCTT]_A3.1_F3.1_T3.2 (ssRNA) RNA: UUUGAUUAAUAUGAUAUCGUUCUUUCUCUUGUCCCUUAUAUAUAUUCUUUCUCGAUAUCAUAUUAAUCUUU	35.7 nM
